The chains are these.
B1: D175H (protein)
chain: MQLRNPELHLGCALALRFLALVSWDIPGARALDNGLARTPTMGWLHWERFMCNLDCQEEPDSCISEKLFMEMAELMVSEGWKDAGYEYLCIDDCWMAPQRDSEGRLQADPQRFPHGIRQLANYVHSKGLKLGIYADVGNKTCAGFPGSFGYYDIDAQTFADWGVDLLKFDGCYCHSLENLADGYKHMSLALNRTGRSIVYSCEWPLYMWPFQKPNYTEIRQYCNHWRNFADIDDSWKSIKSILDWTSFNQERIVDVAGPGGWNDPDMLVIGNFGLSWNQQVTQMALWAIMAAPLFMSNDLRHISPQAKALLQDKDVIAINQDPLGKQGYQLRQGDNFEVWERPLSGLAWAVAMINRQEIGGPRSYTIAVASLGKGVACNPACFITQLLPVKRKLGFYEWTSRLRSHINPTGTVLLQLENTMQMSLKDLL
B2: E178G (protein)
chain: B1 chain with H175D, E178G
B3: E178K (protein)
chain: B1 chain with H175D, E178K
B4: D175Y (protein)
chain: B1 chain with H175Y
B5: L180S (protein)
chain: B1 chain with H175D, L180S
B6: L177V (protein)
chain: B1 chain with H175D, L177V
B7: L180M (protein)
chain: B1 chain with H175D, L180M
B8: L177M (protein)
chain: B1 chain with H175D, L177M
B9: D175V (protein)
chain: B1 chain with H175V
B10: L177S (protein)
chain: B1 chain with H175D, L177S
B11: A181P (protein)
chain: B1 chain with H175D, A181P
B12: S176R (protein)
chain: B1 chain with H175D, S176R
B13: L177F (protein)
chain: B1 chain with H175D, L177F
B14: E178A (protein)
chain: B1 chain with H175D, E178A
B15: L177W (protein)
chain: B1 chain with H175D, L177W
B16: E178Q (protein)
chain: B1 chain with H175D, E178Q
B17: S176C (protein)
chain: B1 chain with H175D, S176C
B18: A181T (protein)
chain: B1 chain with H175D, A181T

Substitutions are numbered along the chain they refer to. Numbers in names are those of the source.

One experiment relates to mutant form of α-Gal A expressed in HEK-293 cells. The experiment is described as follows: HEK assay (GLP HEK / Migalastat Amenability Assay): α-Gal A activity in lysates of transiently transfected HEK-293 cells incubated with or without 10 μM migalastat. In kind it is cell-based, human. The conditions noted are these: 10 μM migalastat versus baseline. An outline of the steps: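 HEK-293 cells transiently transfected with mutant α-Gal A and incubated with or without 10 μM migalastat; lysate activity given as nmol free 4-MU released per mg protein per hour. Values are mean±SEM.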
As for B1, the “Absolute increase (% WT)” value is reported as 26.4 % WT.
The same measure, in the same setting: in the case of B2 it was 18.6 % WT.
Still for that read-out and setting: in the case of B3 it was 16.4 % WT; in that of B4, 22.9 % WT.
In the case of B5, the “Absolute increase (% WT)” value stood at 35.5 % WT.
Still for that read-out and setting: the result for B6 reads 22.9 % WT; that for B7, 29.5 % WT; that for B8, 27.9 % WT.
The same measure, in the same setting: in the case of B9 it was 19.7 % WT; in that of B10, 35.9 % WT.
Same read-out and setting: in the case of B11 it was 29.8 % WT; in that of B12, 22.0 % WT.
Regarding B13, the “Absolute increase (% WT)” value stood at 38.7 % WT.
B14: the “Absolute increase (% WT)” value came out at 14.5 % WT.
With B15, the “Absolute increase (% WT)” value was found to be 37.6 % WT.
As to B16, the “Absolute increase (% WT)” value worked out at 18.3 % WT.
For B17, the “Absolute increase (% WT)” value worked out at 16.2 % WT.
As to B18, the “Absolute increase (% WT)” value came out at 19.2 % WT.

Staying with this experiment, now noted: 10 μM migalastat α-Gal A activity relative to baseline.
In turn, B1 yielded a Relative increase of 1.4.
The molecule B2 came in with a Relative increase of 1.5.
For the molecule B3, the Relative increase was determined as 1.2.
On the same count and under the same terms, the result for B4 reads 1.8; that for B5, 3.3.
On the same count and under the same terms, the result for B6 reads 1.3; that for B7, 1.3; that for B8, 1.4.
Same read-out and setting: the result for B9 reads 1.6; that for B10, 1.7.
Turning to B11, the Relative increase worked out at 1.9.
On the same count and under the same terms, the result for B12 reads 1.3.
Regarding B13, the Relative increase is 1.9.
Still for that read-out and setting: in the case of B14 it was 1.2.
On the same count and under the same terms, the result for B15 reads 1.7.
On the same count and under the same terms, in the case of B16 it was 1.3; in that of B17, 1.2; in that of B18, 1.4.

The experiment is the same for the next values; noted with them: 10 μM migalastat, 5 days; percentage of baseline wild-type α-Gal A activity; mean ± SEM.
Take B1: the “10 μM migalastat α-Gal A activity (% WT)” value is listed as 87.1 ± 3.9 % WT.
On the same count and under the same terms, in the case of B2 it was 61.7 ± 6.4 % WT.
In the case of B3, the “10 μM migalastat α-Gal A activity (% WT)” value was found to be 90.9 ± 4.8 % WT.
B4: the “10 μM migalastat α-Gal A activity (% WT)” value was determined as 52.3 ± 1.9 % WT.
On to B5, for which the “10 μM migalastat α-Gal A activity (% WT)” value worked out at 50.9 ± 2.3 % WT.
Same read-out and setting: in the case of B6 it was 91.8 ± 2.8 % WT.
B7: the “10 μM migalastat α-Gal A activity (% WT)” value stood at 122.9 ± 5.5 % WT.
Still for that read-out and setting: the result for B8 reads 97.4 ± 2.7 % WT.
Same read-out and setting: the result for B9 reads 53.5 ± 2.5 % WT; that for B10, 87.2 ± 4.5 % WT; that for B11, 61.5 ± 3.3 % WT.
On the same count and under the same terms, the result for B12 reads 88.3 ± 3.3 % WT; that for B13, 84 ± 2.3 % WT.
B14: the “10 μM migalastat α-Gal A activity (% WT)” value was 84.8 ± 6.8 % WT.
The same measure, in the same setting: in the case of B15 it was 88.2 ± 2 % WT; in that of B16, 86.4 ± 5 % WT.
As to B17, the “10 μM migalastat α-Gal A activity (% WT)” value is 79.5 ± 5.1 % WT.
Consider B18, for which the “10 μM migalastat α-Gal A activity (% WT)” value is recorded as 71.3 ± 4.6 % WT.

The experiment is the same for the next values; noted with them: absence of migalastat; percentage of baseline wild-type α-Gal A activity; mean ± SEM.
B1: the “Baseline α-Gal A activity (% WT)” value amounted to 60.7 ± 3.4 % WT.
On the same count and under the same terms, the result for B2 reads 43.1 ± 4.7 % WT; that for B3, 74.5 ± 3.4 % WT.
On the same count and under the same terms, in the case of B4 it was 29.4 ± 2.4 % WT.
As for B5, the “Baseline α-Gal A activity (% WT)” value was 15.4 ± 1.5 % WT.
As to B6, the “Baseline α-Gal A activity (% WT)” value is recorded as 68.9 ± 3.2 % WT.
Still for that read-out and setting: the result for B7 reads 93.4 ± 6.6 % WT; that for B8, 69.5 ± 2.3 % WT; that for B9, 33.7 ± 2.2 % WT.
Still for that read-out and setting: the result for B10 reads 51.4 ± 1.7 % WT; that for B11, 31.7 ± 2 % WT.
On the same count and under the same terms, the result for B12 reads 66.3 ± 2 % WT; that for B13, 45.3 ± 2.1 % WT.
As for B14, the “Baseline α-Gal A activity (% WT)” value stood at 70.3 ± 4.9 % WT.
Same read-out and setting: in the case of B15 it was 50.5 ± 2.6 % WT; in that of B16, 68.1 ± 4.5 % WT.
Regarding B17, the “Baseline α-Gal A activity (% WT)” value worked out at 63.3 ± 3.9 % WT.
Still for that read-out and setting: in the case of B18 it was 52.1 ± 2.7 % WT.

Staying with this experiment, now noted: lysates of HEK-293 cells transfected with the mutant form, incubated 5 days in the absence of migalastat; mean ± SEM.
In the case of B1, the “Baseline α-Gal A activity” value came out at 18529 ± 1174 nmol/mg/h.
B2: the “Baseline α-Gal A activity” value is 17470 ± 2323 nmol/mg/h.
For the molecule B3, the “Baseline α-Gal A activity” value came to 25584 ± 1225 nmol/mg/h.
Still for that read-out and setting: in the case of B4 it was 8991 ± 838 nmol/mg/h; in that of B5, 5625 ± 604 nmol/mg/h.
The same measure, in the same setting: the result for B6 reads 23616 ± 1282 nmol/mg/h; that for B7, 35987 ± 2266 nmol/mg/h; that for B8, 23730 ± 946 nmol/mg/h.
Turning to B9, the “Baseline α-Gal A activity” value stood at 10430 ± 915 nmol/mg/h.
Still for that read-out and setting: the result for B10 reads 17445 ± 533 nmol/mg/h; that for B11, 10948 ± 725 nmol/mg/h; that for B12, 22675 ± 886 nmol/mg/h.
On the same count and under the same terms, the result for B13 reads 15605 ± 911 nmol/mg/h.
Still for that read-out and setting: the result for B14 reads 23910 ± 1511 nmol/mg/h; that for B15, 17321 ± 1025 nmol/mg/h; that for B16, 23272 ± 1501 nmol/mg/h.
Consider B17, for which the “Baseline α-Gal A activity” value is 20097 ± 1126 nmol/mg/h.
On the same count and under the same terms, in the case of B18 it was 17946 ± 1002 nmol/mg/h.

Staying with this experiment, now noted: lysates of HEK-293 cells transfected with the mutant form, incubated 5 days with 10 μM migalastat; mean ± SEM.
For B1, the “10 μM migalastat α-Gal A activity” value was determined as 26201 ± 994 nmol/mg/h.
Still for that read-out and setting: in the case of B2 it was 26566 ± 4263 nmol/mg/h; in that of B3, 31222 ± 1660 nmol/mg/h.
Still for that read-out and setting: in the case of B4 it was 15923 ± 778 nmol/mg/h.
The same measure, in the same setting: in the case of B5 it was 18335 ± 964 nmol/mg/h.
For B6, the “10 μM migalastat α-Gal A activity” value was determined as 31347 ± 1132 nmol/mg/h.
Regarding B7, the “10 μM migalastat α-Gal A activity” value came out at 47587 ± 2132 nmol/mg/h.
On the same count and under the same terms, the result for B8 reads 33080 ± 829 nmol/mg/h; that for B9, 16384 ± 1039 nmol/mg/h; that for B10, 29868 ± 1909 nmol/mg/h.
Consider B11, for which the “10 μM migalastat α-Gal A activity” value worked out at 21274 ± 1279 nmol/mg/h.
On the same count and under the same terms, in the case of B12 it was 30159 ± 1226 nmol/mg/h; in that of B13, 28893 ± 1210 nmol/mg/h.
Consider B14, for which the “10 μM migalastat α-Gal A activity” value came to 29125 ± 2326 nmol/mg/h.
Still for that read-out and setting: in the case of B15 it was 30075 ± 867 nmol/mg/h; in that of B16, 29671 ± 1733 nmol/mg/h; in that of B17, 24777 ± 960 nmol/mg/h.
On the same count and under the same terms, in the case of B18 it was 24490 ± 1576 nmol/mg/h.

For the origin of these results see patent US11833164B2, “Methods of treating Fabry disease in patients having a mutation in the GLA gene” (Amicus Therapeutics, Inc., priority 2019, dated 2023).
